Data set [1] concerns the molecule itself. Nature of the data set: negative-stain single-particle EM.
Data set [2] concerns the molecule itself. Nature of the data set: negative-stain single-particle EM. The source holds these as a separate data set.

Where two headings read alike, the source gives them in different places.

B1: Atg17 (recombinant, His-MBP tag removed by TEV), in the untagged Atg17-Atg31-Atg29 complex (natural protein, S. cerevisiae, UniProt Q06410 1-417, looked up)
chain: MNEADVTKFVNNARKTLTDAQLLCSSANLRIVDIKKKLSSWQLSISKLNFLIVGLRQQGKFLYTILKEGIGTKLIQKQWNQAVLVVLVDEMKYWQYEITSKVQRLDGIVNELSISEKDDTDPSKLGDYISRDNVNLLNDKLKEVPVIERQIENIKLQYENMVRKVNKELIDTKLTDVTQKFQSKFGIDNLMETNVAEQFSRELTDLEKDLAEIMNSLTQHFDKTLLLQDKKIDNDEREELFKVVQGDDKELYNIFKTLHEVIDDVDKTILNLGQFLQAKIKEKTELHSEVSEIINDFNRNLEYLLIFKDISNLIDSFKNSCTQDIQTTKELCEFYDNFEESYGNLVLEAKRRKDVANRMKTILKDCEKQLQNLDAQDQEERQNFIAENGTYLPETIWPGKIDDFSSLYTLNYNVKNP
B1: in data set [1], the “stoichiometry N” value came to 2.

B2: His-MBP-tagged Atg17 (natural protein, S. cerevisiae, UniProt Q06410 1-417, looked up)
chain: MNEADVTKFVNNARKTLTDAQLLCSSANLRIVDIKKKLSSWQLSISKLNFLIVGLRQQGKFLYTILKEGIGTKLIQKQWNQAVLVVLVDEMKYWQYEITSKVQRLDGIVNELSISEKDDTDPSKLGDYISRDNVNLLNDKLKEVPVIERQIENIKLQYENMVRKVNKELIDTKLTDVTQKFQSKFGIDNLMETNVAEQFSRELTDLEKDLAEIMNSLTQHFDKTLLLQDKKIDNDEREELFKVVQGDDKELYNIFKTLHEVIDDVDKTILNLGQFLQAKIKEKTELHSEVSEIINDFNRNLEYLLIFKDISNLIDSFKNSCTQDIQTTKELCEFYDNFEESYGNLVLEAKRRKDVANRMKTILKDCEKQLQNLDAQDQEERQNFIAENGTYLPETIWPGKIDDFSSLYTLNYNVKNP
In the case of B2, in data set [2], the “stoichiometry N” value came to 2.

Source of the values: publication PMC5871871 (Autophagy, 2013).
